According to the nanobody polyreactivity screen of Harvey et al. (2022):

Experiment: yeast display, Sf9 membrane polyspecificity reagent, FACS + sequencing; frameworks hold sequencing errors
Procedure, shortened: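 Nanobodies from a synthetic yeast display library (Saccharomyces cerevisiae BJ5465), induced 36–48 hours with galactose, were stained 1 hour at 4 °C with 10% biotinylated, detergent-solubilized Sf9 membrane reagent, enriched on streptavidin microbeads, then FACS-sorted. Anti-HA (expression) and streptavidin (reagent binding) fluorescence set low and high (top ~1%) gates. Polyreactivity labels come from the gate of origin. Genes were colony-PCR amplified, MiSeq 2 × 250 sequenced and filtered by CDR length.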

Sequence | polyreactivity (PSR sort gate)
QVQLVESGGGLVQAGGSLRLSCAASGSTFFKYGMGWYRQAPGKERELVATISSRGGNTSYADSVKGRFTISRDNAKNTVYLLMNSLKPEVTAVYLCNAKLVYVGDTTTWGQGTQVTVSS | low polyreactivity
QVQLVESGGGLVQAGGSLRLSCAASGSILYYNAMGWYRQAPGKERELVAAITSGGSTYADSVKGRFTISRDNAKNTFYLQMNCLKPEDTAVYYCAADLYWYLSDYGTTLEHDYWGQGTQVTVSS | low polyreactivity
QVQLVESGGGLVQAGGSLRLSCAASGRTFRKYAMGWYRQAPGKERELVAAISQRGGTTYYADSVKGRFTISRDNAKNTVYLQINSLKPEDTAVYYCNVAWVGVSLVYGPFEYDYWGQGTQVTVSS | high polyreactivity
QVQLVESGGGLVQAGGSLRLSCAASGSTFRVYAMGWYRQAPGKESELVATISWGGGRTYYADSVKGRFTISRDNAKNTVYLLMNSLKPEDTAVYYCAADQRWTTDQPTAGDYWGQGTQVTVSS | low polyreactivity
QVQLVESGGGLVQAGGSLRLSCAASGGTFGVNAMGWYRQAPGKERELVAAISSSGGRTYYADSVKGRFTISRDNAKNTVFLQMNSLKPEDTAVYYCAARNYFWGQGTQVTVSS | low polyreactivity
QVQLVESGGGLVQAGGSLRLSCAASGRIFYRYAMGWYRQAPGKEREFVAAISRSGTTTYYADSVKGRFTISRDNAKNTVYLQMNSLKPEDTAVYYCAVGYRGWDGYWGQGTQVTVSS | high polyreactivity
QVQLVESGGGLVQAGGSLRLSCAASGRIFWYNALGWYRQAPGKEREVVAAISWRGSRTYYADSVKGRFTISRDNAKNTVYLQMNSLKPEETAVYYCAAVIKWTKDDYWGQGTQVTVSS | high polyreactivity
QVQLVESGGGLVQAGGSLSLSCAASGSIFDVNAMGWYRQAPGKERELVAAISDSGGSTYYADSVKGRFTISRDNAKNTVHLQMNSLKAEDTAVYYCNADWSWYNYYDFDYWGQGTQVTVSS | low polyreactivity
QVQLVESGGGLVQAGGSLRLSCAASGSIFSFNAMGWYRQAPGKEREFVAAIFGVTRTYYADSVKGRFTISRDNAKNTVYLQMNSLKPEDTAVYYCAARPPYRRYSEPRFGYWGQGTQVTVSS | high polyreactivity
QVQLVESGGGLVQAGGSLRLSCAASGRTFAIYAMGWYRQAPGKERELVATIRGGSTYYADSVKGRFTISRDNAKNTVYLQMNSLKPEDTAVYYCAAEFLYASVYYSYWGQGTQVTVSS | high polyreactivity
QVQLVESGGGLVQAGGSLRLSCAASGLIFRWYAMGWYRQAPGKETELVAAINYSGGRTYYADSVKGRFTISRDNAKNTVYLQMNSLKPEDTAVYYCNAVAVPSTYDYWGQGTQVTVSS | low polyreactivity
QVQLVESGGGLVQAGCSLRLSCAASGSIFAYYTMGWYRQAAGKERELVATISSGDITNYADSVKGRFTISRDNAKNSVYLQMNSLKPEDTAVYFCAAAELTSYYRTFIHKDYDFWGQGTQVSVSS | low polyreactivity
QVQLVESGGGLVQAGGSLRFSCAASGRIFGGNTMGWYRQAPGKERELVATIRSGDSTYYADSVKGRFTISRDNAKNTVYLQMNSLKPEDTAVYYCGYDYWGQGTQVTVSS | low polyreactivity
QVQLVESGGCLVQAGGSLRLSCAASGITFPGNAMGWYRPATGKERELVAVIRKSGTSTYYADSVKGRFTISRDNAKNTVYLQMISLIPEDTAVYYCAAGGPSTLDDYWGHGTQVTVSS | low polyreactivity
QVQLVESGGGLVQAGGSLRLSSAASGRIIKIYAMGWYRQAPGKERELVAAISGRGGSTYYADSVKGRFTISRDNAKYTVYLQMNSLKPEDTAVYYCAAVGYGFSAYSTYDYWGQGTQVTVSS | high polyreactivity
QVQLVESGVGLVLAGGSLRLSCAASGRTFWSYAMGWYRKAPGKERELVAAITWSGTSTDYAVSVKGRFTISRDNAKNRVYLLMKSLKPEDTAVYYCAAIVYGQYRSRYYYWGQGTEVTVSS | high polyreactivity
QVQLVESGGGLVQAGGSLRLSCAASGSIYTNAMGWYRQAPGKERELVAAISKRGGSTNYADSVKGRFTISRDNAKNTVYLQMNSLKPEDTAVYYCNRTGSTGYVQVWRPGDYWGQGTQVTVSS | high polyreactivity
